The values that follow come from PMC12181280 (NPJ Biofilms and Microbiomes, 2025).

Positions count from the first letter of the chain named. Names may count otherwise.

The target of data set [1] is S. aureus GudB (glutamate dehydrogenase) (S. aureus (endogenous in USA300 JE2)). Description: native gel or EMSA. (Mobility shift assays separate free from complexed probe on a gel.)
The data set “SEC” deals with the molecule itself. Description: SEC. On the technique in general: Size exclusion chromatography separates by hydrodynamic size, large species first.
The data set “native gel or EMSA” concerns the molecule itself. Description: native gel or EMSA.

The term stoichiometry N denotes the number of molecules, sites or subunits per partner or assembly. The molecule “S. aureus GudB (glutamate dehydrogenase) (enzyme)” returned a stoichiometry N in data set [1] of 3.

B1: N-terminally His-tagged WT Bcd (B. subtilis Val/Leu/Ile dehydrogenase) (enzyme, UniProt P54531 1-364, looked up)
chain: MELFKYMEKYDYEQLVFCQDEQSGLKAIIAIHDTTLGPALGGTRMWTYENEEAAIEDALRLARGMTYKNAAAGLNLGGGKTVIIGDPRKDKNEEMFRAFGRYIQGLNGRYITAEDVGTTVEDMDIIHDETDYVTGISPAFGSSGNPSPVTAYGVYRGMKAAAKAAFGTDSLEGKTIAVQGVGNVAYNLCRHLHEEGANLIVTDINKQSVQRAVEDFGARAVDPDDIYSQDCDIYAPCALGATINDDTIKQLKAKVIAGAANNQLKETRHGDQIHEMGIVYAPDYVINAGGVINVADELYGYNAERALKKVEGIYGNIERVLEISQRDGIPAYLAADRLAEERIERMRRSRSQFLQNGHSVLSRR
With B1, the “stoichiometry N” value in the data set “SEC” was determined as 6.

B2: N-terminally His-tagged Bcd(K80A) (enzyme, B. subtilis, UniProt P54531 1-364, looked up)
chain: B1 chain with K80A
On to B2, for which the “stoichiometry N” value in the data set “SEC” came out at 6.

B3: Bcd, native complex in B. subtilis NCIB3610 cell lysate (enzyme, B. subtilis (endogenous in NCIB3610), UniProt P54531 1-364, looked up)
chain: B1 chain
In the case of B3, in the data set “native gel or EMSA”, the “stoichiometry N” value turned out to be 6.
